Measurements from US20140112919A1.

Experiments:
[1] = target: rat anti hIL-10 mAb 12G8; assay: competitive ECLA (IGEN): unlabeled IL-10 titrated against hIL-10-biotin for binding to rat 12G8
[2] = target: T1, recombinant hIL-10Ra: FLAG-tagged protein (human) (UniProt Q13651); assay: competitive ECLA (IGEN): unlabeled IL-10 titrated against hIL-10-biotin for binding to FLAG-tagged hIL-10Ra
T1 sequence: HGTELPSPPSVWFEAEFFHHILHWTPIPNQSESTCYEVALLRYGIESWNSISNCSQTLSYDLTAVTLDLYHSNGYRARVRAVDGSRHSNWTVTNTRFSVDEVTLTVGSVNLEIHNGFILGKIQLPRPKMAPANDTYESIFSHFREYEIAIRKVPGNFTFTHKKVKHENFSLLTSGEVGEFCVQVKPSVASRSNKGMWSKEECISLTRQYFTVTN

Chain of recombinant cyno IL-10 (P79338 19-178 limits assumed): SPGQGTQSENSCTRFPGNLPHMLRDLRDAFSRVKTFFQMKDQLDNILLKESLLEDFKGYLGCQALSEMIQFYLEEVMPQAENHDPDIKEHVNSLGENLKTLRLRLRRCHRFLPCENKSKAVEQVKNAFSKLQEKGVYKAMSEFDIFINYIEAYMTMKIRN

IC50 [1] [nM]	IC50 [2] [nM]	Substance
6.6	17.6	recombinant cyno IL-10 (from UniProt P79338) (ligand)
4.7	2.9	recombinant human IL-10 (from UniProt P22301) (ligand)
7.1	7.2	recombinant human IL-10-monomer (from UniProt P22301) (ligand)
